Sequences and labels used below:
B1: human apo-SUN2 (residues 522-717) (domain or fragment, UniProt Q9UH99 522-717, looked up)
chain: GVTEEQVHHIVKQALQRYSEDRIGLADYALESGGASVISTRCSETYETKTALLSLFGIPLWYHSQSPRVILQPDVHPGNCWAFQGPQGFAVVRLSARIRPTAVTLEHVPKALSPNSTISSAPKDFAIFGFDEDLQQEGTLLGKFTYDQDGEPIQTFHFQAPTMATYQVVELRILTNWGHPEYTCIYRFRVHGEPAH

The series “SEC” deals with the molecule itself. Kind of series: SEC.
Series [1] has as its target B1. The experiment in a line: SEC. On the technique in general: In gel filtration, larger molecules generally elute earlier.

The term stoichiometry N denotes the number of molecules, sites or subunits per partner or assembly. Consider B1, for which the “stoichiometry N” value in “SEC” was determined as 3.

Consider TQANNFARSFYPMLRYTNGPPPT (peptide, UniProt Q8WXH0 6863-6885, looked up) [6xHis-sfGFP-KASH2 polypeptide (KASH2 residues 6863-6885)], for which, in series [1], the binding result is listed as “binds”.

For the origin of these results see article PMC5544124 (Methods in enzymology, 2015).
